Common to all, as to assay type: physicochemical
Data set [1] in a line: Chemical stability of the emulsion (peptide content by LC/MS). As to conditions: for Content after 2 month at 5° C.: emulsion of Example 5, 2 month at 5° C.; for Content after 2 month at 25° C.: emulsion of Example 5, 2 month at 25° C.; for Content after 2 month at −20° C.: emulsion of Example 5, 2 month at −20° C.; for Initial content: emulsion of Example 5, initial. As to the method: The chemical stability of the peptides contained in the emulsion prepared according to Example 5 is assessed by means of the following method.
A sample of 0.9 g of the emulsion of Example 5 is accurately weighted and mixed with 0.1% TFA in DMSO so as to fill a 5 mL volumetric flask. The mixture is then vortexed for 2 minutes and centrifuged for 7 minutes at 4000 rpm. The lower layer is then analyzed by Liquid Chromatography/Mass Spectroscopy (LC/MS) using the following chromatographic conditions:
Column: Advance Bio Peptide Mapping LC column, 2.1×250 mm, 2.7 μm, C18, 120 Å, Agilent® reference n° 651750-902 or equivalent
Column temperature: 35° C.±2° C.
Sample temperature: 5° C.
Needle wash: 0.1% Trifluoroacetic acid (TFA) in dimethylsulfoxide (DMSO)
Mobile phase: Eluent A: 0.2% TFA in 5% acetonitrile
• Eluent B: 0.2% TFA in 95% acetonitrile Gradient table: […]
A standard solution is prepared by transferring 0.9 mL of the batch suspension described in Example 1 with 1.1 mL of Montanide ISA 51 in a 10.0 mL volumetric flask, then vortexing and centrifuging the mixture as described above. The lower layer thus obtained is analyzed in the same conditions as above.
The concentration of each peptide is expressed in mg/g using the formula:
[formula] where: A: is the peak area of each peptide in the sample solution S: is the peak area of each peptide in the standard solution W: is the sample weight expressed in g

A short description of data set [2]: Peptide concentration in emulsions prepared with different stirring times. As to conditions: initial concentration in emulsion. On the procedure: Emulsions according to this invention were prepared as described in Example 5, using different stirring times.
Data set [3] can be described thus: Comparative experiment: emulsion made with high shear mixer, consistency and peptide oxidation. The note with it: high shear mixer batches at 5000 and 8000 rpm. On the procedure: The suspension prepared as described in Example 1 was mixed with the same adjuvant, in the same ratio, except that mixing was conducted by means of a high shear mixer (Silverson® Verso) having a rotor-stator configuration. […] Other batches obtained with the same mixer at 5000 and 8000 rpm led to peptide degradation. Specifically, 8.5% oxidation of peptide […] (SEQ ID NO: 5) was noted after 6 weeks storage at 4° C. and still 2% oxidation at −20° C.

Regarding LLTFWNPPV [MPS-213], in data set [1], the “Content after 2 month at 5° C.” value is on record as 0.54 mg/g, the “Content after 2 month at 25° C.” value came to 0.54 mg/g, the “Content after 2 month at −20° C.” value stood at 0.55 mg/g and the Initial content is 0.56 mg/g. In data set [2] (stirring time 5 minutes), this substance had a Concentration of 560 µg/mL. In data set [2] (stirring time 10 minutes), this substance returned a Concentration of 560 µg/mL. Also, the Concentration in data set [2] (stirring time 15 minutes) came out at 560 µg/mL.
Consider RLLQETELV [MPS-112], for which, in data set [1], the “Content after 2 month at 5° C.” value turned out to be 0.55 mg/g, the “Content after 2 month at 25° C.” value came to 0.55 mg/g, the “Content after 2 month at −20° C.” value amounted to 0.55 mg/g and the Initial content is recorded as 0.57 mg/g. This substance also gave a Concentration in data set [2] (stirring time 5 minutes) of 560 µg/mL. The Concentration in data set [2] (stirring time 10 minutes) came out at 570 µg/mL. This substance also had a Concentration in data set [2] (stirring time 15 minutes) of 560 µg/mL.
As for SMPPPGTRV [MPS-103], in data set [1], the “Content after 2 month at 5° C.” value stood at 0.54 mg/g, the “Content after 2 month at 25° C.” value is listed as 0.54 mg/g, the “Content after 2 month at −20° C.” value is given as 0.55 mg/g and the Initial content is listed as 0.55 mg/g. In data set [3] (after 6 weeks storage at 4° C.), this substance gave an oxidation of 8.5%. The substance also gave an oxidation in data set [3] (storage at −20° C.) of 2%. The Concentration in data set [2] (stirring time 5 minutes) came to 530 µg/mL. For the same substance, in data set [2] (stirring time 10 minutes), the Concentration was 560 µg/mL. The substance also gave a Concentration in data set [2] (stirring time 15 minutes) of 540 µg/mL.
For the substance IMIGHLVGV [MPS-214], in data set [1], the “Content after 2 month at 5° C.” value is recorded as 0.51 mg/g, the “Content after 2 month at 25° C.” value is given as 0.50 mg/g, the “Content after 2 month at −20° C.” value amounted to 0.51 mg/g and the Initial content came to 0.53 mg/g. In data set [3] (after 6 weeks storage at 4° C.), the oxidation came to 16.5%. Besides, the oxidation in data set [3] (storage at −20° C.) was found to be 4%. Besides, the Concentration in data set [2] (stirring time 5 minutes) was 530 µg/mL. Moreover, the Concentration in data set [2] (stirring time 10 minutes) was determined as 530 µg/mL. Also, in data set [2] (stirring time 15 minutes), the Concentration stood at 530 µg/mL.
In the case of YLSGADLNL [MPS-200], in data set [1], the “Content after 2 month at 5° C.” value is 0.56 mg/g, the “Content after 2 month at 25° C.” value was 0.55 mg/g, the “Content after 2 month at −20° C.” value turned out to be 0.56 mg/g and the Initial content turned out to be 0.58 mg/g. This substance also displayed a Concentration in data set [2] (stirring time 5 minutes) of 570 µg/mL. Moreover, the Concentration in data set [2] (stirring time 10 minutes) came out at 570 µg/mL. The substance also returned a Concentration in data set [2] (stirring time 15 minutes) of 570 µg/mL.
For the substance “aKXVAAWTLKAAa [MPS-7, peptide with X and a respectively indicating cyclohexylalanine and d-alanine]”, in data set [1], the “Content after 2 month at 5° C.” value was 0.56 mg/g, the “Content after 2 month at 25° C.” value came out at 0.56 mg/g, the “Content after 2 month at −20° C.” value worked out at 0.56 mg/g and the Initial content is on record as 0.58 mg/g. Further, the Concentration in data set [2] (stirring time 5 minutes) amounted to 580 µg/mL. The same substance registered a Concentration in data set [2] (stirring time 10 minutes) of 580 µg/mL. The Concentration in data set [2] (stirring time 15 minutes) was 570 µg/mL.
As for KLBPVQLWV [MPS-102], in data set [1], the “Content after 2 month at 5° C.” value worked out at 0.55 mg/g, the “Content after 2 month at 25° C.” value is given as 0.55 mg/g, the “Content after 2 month at −20° C.” value is listed as 0.55 mg/g and the Initial content came out at 0.57 mg/g. In data set [2] (stirring time 5 minutes), this substance showed a Concentration of 560 µg/mL. The substance also returned a Concentration in data set [2] (stirring time 10 minutes) of 570 µg/mL. This substance had a Concentration in data set [2] (stirring time 15 minutes) of 560 µg/mL.

The record behind these values is patent publication US11981713B2, “Method for manufacturing a stable emulsion for peptide delivery” (OSE IMMUNOTHERAPEUTICS, priority 2017, dated 2024).
